Patent publication US20220403326A1, “MEDIA FORMULATIONS AND METHODS FOR PRODUCING PROGENITOR T CELLS” (priority 2019, published 2022)

What was measured:
Format in all cases: cell-based, human
CD34+ HSPCs [1] = experiment: TPO requirement with or without TNFα, 14-day culture; conditions: 14 days
Method: To assess the requirement for TPO in T lineage development, CD34+ HSPCs were analyzed by flow cytometry after 14 days in the presence or absence of TNFα, and further in the presence or absence of TPO.

CD34+ HSPCs [2] = experiment: Definitive screening design cytokine screen for proT cell differentiation and expansion; conditions: for effect on total live cells, CD7+ lymphocytes and CD7+CD5+ cells relative to the control condition: day 0-7 and day 7-14, control SCF, FLT3L, TPO, IL-7 at 20 ng/ml each, linear regression model
Method: For experiments 7 days or longer, HSPCs were seeded at 63-125 cells/mm^2 (equivalent to 2000-4000 cells/well of a 96-well plate) on DL4+VCAM-1-coated surfaces. Experiments shorter than 7 days (CFSE and qPCR) were seeded at 470-780 cells/mm^2 (equivalent to 15,000-25,000 cells/well of a 96-well plate) to provide enough cells for analysis. Cells were cultured in 100 μl/well (32 μl/well for 384-well plate) of Iscove's Modified Eagle Medium (IMDM) supplemented with 20% bovine serum albumin, insulin, and transferrin (BIT 9500) serum substitute (Stemcell Technologies), 1 μg/ml low-density lipoprotein (LDL; Stemcell Technologies), 60 μM ascorbic acid (Sigma), 24 μM 2-mercaptoethanol (Sigma), and 1% penicillin-streptomycin (P/S; Invitrogen). The cytokines used in control condition were SCF, FLT3L, TPO, and IL-7 (also known as the “4F cytokines”, all of which were obtained from R&D Systems), each at a concentration of 20 ng/ml or 100 ng/ml as indicated in the text. All other cytokines were purchased from R&D Systems and used in the combinations and concentrations indicated in the text. For certain experiments, the γ-secretase inhibitor (2S)-N-[(3,5-Difluorophenyl)acetyl]-L-alanyl-2-phenyl] glycine 1,1-dimethylethyl ester (DAPT) or dimethyl sulfoxide (DMSO) was added to media at the concentrations indicated in the text.
For screening experiments, a Definitive Screening Design (DSD)^7 was employed where each factor was tested at three levels (scaled to [−1,0,1]). The design included at least 2m+1 runs, where m is the number of factors, comprised of m fold-over pairs plus a center run (with all factors at level 0) and with orthogonal blocking of UCB donors.^8
Absolute cell numbers were acquired for each cell population of interest and, for initial experiments, a z-score was calculated relative to the control condition:
where SE(⋅) is the standard error. Control conditions were the cytokines used previously in the DL4+VCAM-1 assay as in Shukla et al.^6 Stepwise regression using the minimum Bayesian information criterion method was used to determine significant terms and, from this, a linear regression model of z-scores was constructed that included main and quadratic effects and two-factor interactions. This provided a better- or worse-than estimate for each factor compared to the control. The DSD layout and regression model were constructed using JMP 13 software (SAS). Follow up experiments measuring the dose response of top factors, the regression model was fit to the absolute cell count. Values were square root or log-transformed as necessary to ensure that residuals were approximately normal before fitting the regression model.
Test conditions were arranged using serial dilutions of each cytokine and laid out using an Eppendorf epMotion 5070 liquid handler in 384-well plates previously coated with DL4 and VCAM-1.
To identify factors that enhance proT cell differentiation and expansion, a two-part screen was conducted from day 0-7 and day 7-14 to separate the effects of screened molecules on HSPCs and differentiating proT cells (FIG. 1a). Screened molecules were tested at three doses each in combination using a definitive screening design (DSD) experiment and a linear regression model was fit to empirical data to estimate dose response.^7 The response to factors was measured against a control condition that contained SCF, FLT3L, TPO and IL-7 cytokines as in Shukla et al.^6 but using a lower concentration of 20 ng/ml each.
Medium gray indicates the effect of the control condition; dark gray to black indicates an effect greater than the control condition; and light gray to white indicates an effect lesser than the control condition. The size of each circle indicates the significance of the effect in the linear regression model. Combinations of factors indicate two-factor interactions (e.g., TPO*IL-1β) or quadratic effects (e.g., IL-21*IL-21) in the regression model. […] IL-3 and TNFα were selected for further investigation. […]

CD34+ HSPCs [3] = experiment: IL-3, TNFα or IL-3+TNFα culture on DL4+VCAM-1, flow cytometry on day 7 and day 14; conditions: day 7 and day 14 (FIGS. 5d and e)
Method: For experiments 7 days or longer, HSPCs were seeded at 63-125 cells/mm^2 (equivalent to 2000-4000 cells/well of a 96-well plate) on DL4+VCAM-1-coated surfaces. Experiments shorter than 7 days (CFSE and qPCR) were seeded at 470-780 cells/mm^2 (equivalent to 15,000-25,000 cells/well of a 96-well plate) to provide enough cells for analysis. Cells were cultured in 100 μl/well (32 μl/well for 384-well plate) of Iscove's Modified Eagle Medium (IMDM) supplemented with 20% bovine serum albumin, insulin, and transferrin (BIT 9500) serum substitute (Stemcell Technologies), 1 μg/ml low-density lipoprotein (LDL; Stemcell Technologies), 60 μM ascorbic acid (Sigma), 24 μM 2-mercaptoethanol (Sigma), and 1% penicillin-streptomycin (P/S; Invitrogen). The cytokines used in control condition were SCF, FLT3L, TPO, and IL-7 (also known as the “4F cytokines”, all of which were obtained from R&D Systems), each at a concentration of 20 ng/ml or 100 ng/ml as indicated in the text. All other cytokines were purchased from R&D Systems and used in the combinations and concentrations indicated in the text. For certain experiments, the γ-secretase inhibitor (2S)-N-[(3,5-Difluorophenyl)acetyl]-L-alanyl-2-phenyl] glycine 1,1-dimethylethyl ester (DAPT) or dimethyl sulfoxide (DMSO) was added to media at the concentrations indicated in the text. […]

HSPCs = experiment: CFSE proliferation assay of HSPCs on DL4+VCAM-1
Method: To track the number of cell divisions, cells were stained with 2.5 μM CellTrace™ CFSE (ThermoFisher) in PBS and incubated at 37° C. for 8 minutes. CFSE was quenched by adding 5 times the volume of IMDM+BIT and incubating at 37° C. for 5 minutes. Cells were then resuspended in fresh media and seeded on DL4+VCAM-1 for culture. For analysis, cells were collected and stained for CD34, CD7, and CD5 surface markers as described above and analyzed using flow cytometry. Proliferation was modelled using FlowJo™ software and further analysis was performed with R.
To track the number of cell divisions in response to each of IL-3 and TNFα, the HSPCs were first stained with carboxyfluorescein succinimidyl ester (CFSE). IL-3 or TNFα were added on day 0 and the number of divisions of each cell was analyzed on days 2, 3, 4 and 5.

Molecule: TPO: cytokine thrombopoietin, one of the 4F cytokines
- CD7+ lymphoid cell development after removal of TPO (CD34+ HSPCs [1]; TNFα present): not detrimental
- number of CD7+ cells after removal of TPO (CD34+ HSPCs [1]; absence of TNFα): decreased significantly
- number of CD14/33+ myeloid cells after removal of TPO (CD34+ HSPCs [1]; with or without TNFα): decreased the number of CD14/33+ myeloid cells

Molecule: SCF: cytokine stem cell factor, one of the 4F cytokines
- effect on total live cells, CD7+ lymphocytes and CD7+CD5+ cells relative to the control condition (CD34+ HSPCs [2]): string positive effects

B1: IL-3: cytokine; protein that in humans is encoded by the IL3 gene (accession P08700; SEQ ID NO: 7) (protein, listed as Homo sapiens)
chain: MSRLPVLLLLQLLVRPGLQAPMTQTTPLKTSWVNCSNMIDEIITHLKQPPLPLLDFNNLNGEDQDILMENNLRRPNLEAFNRAVKSLQNASAIESILKNLLPCLPLATAAPTRHPIHIKDGDWNEFRRKLTFYLKTLENAQAQQTTLSLAIF
- number of CD14/33+ myeloid lineage cells, IL-3 compared with IL-3+TNFα conditions (CD34+ HSPCs [3]): similar
- effect on total live cells, CD7+ lymphocytes and CD7+CD5+ cells relative to the control condition (CD34+ HSPCs [2]): string positive effects
- dose response of live cells, CD7+ lymphocytes and CD7+CD5+ proT cells (CD34+ HSPCs [2]; range of concentrations, n=2 UCB donors): curved response in at least one population
- average number of divisions vs control (HSPCs; CFSE, days 2-5): more divisions than the control group
- variance in the number of divisions vs control (HSPCs; CFSE, days 2-5): significantly larger variance
- CD7+ frequency vs control (HSPCs; by day 5): lower CD7+frequency than the control
- cell fraction affected (CD7− vs CD7+ cells), number of divisions (HSPCs; cytokine added on day 0, days 2-5): predominantly affecting the CD7− fraction
- upregulation of CD7 (HSPCs; days 2-5): upregulated CD7 comparably to the control

B2: IL-7: cytokine interleukin 7, one of the 4F cytokines (protein, UniProt P13232 26-177, looked up)
Interleukin-7: DCDIEGKDGKQYESVLMVSIDQLLDSMKEIGSNCLNNEFNFFKRHICDANKEGMFLFRAARKLRQFLKMNSTGDFDLHLLKVSEGTTILLNCTGQVKGRKPAALGEAQPTKSLEENKSLKEQKKLNDLCFLKRLLQEIKTCWNKILMGTKEH
- effect on total live cells, CD7+ lymphocytes and CD7+CD5+ cells relative to the control condition (CD34+ HSPCs [2]): string positive effects
